Laboratory results as given in US20190023739A1 (TOKUSHIMA UNIVERSITY, published 2019).

Target: T1, His-tagged recombinant PHB2 (UniProt Q99623 1-299, limits assumed)
T1 construct: also called prohibitin 2; REA; not shown: His tag
Test: surface plasmon resonance (BiAcore) interaction analysis

T1 sequence (Q99623 whole entry): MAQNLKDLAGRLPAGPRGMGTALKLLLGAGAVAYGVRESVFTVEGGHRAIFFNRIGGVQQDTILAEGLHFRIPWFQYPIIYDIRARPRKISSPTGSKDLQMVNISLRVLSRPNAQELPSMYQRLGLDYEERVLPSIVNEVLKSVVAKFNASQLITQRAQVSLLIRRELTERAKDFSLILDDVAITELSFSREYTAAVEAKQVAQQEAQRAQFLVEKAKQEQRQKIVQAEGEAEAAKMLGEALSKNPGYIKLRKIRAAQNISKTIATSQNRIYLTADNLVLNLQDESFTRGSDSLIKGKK

- Kd: 12.8 µM
B1: 11R-ERAP (11R-GGG-QMLSDLTLQLRQR) (peptide)
peptide: RRRRRRRRRRRGGGQMLSDLTLQLRQR
notes: Unstapled control peptide, synthesized as in Yoshimaru et al. 2013; also called dominant negative peptide
